Assay results reported in PMC11007443, “A selection and optimization strategy for single-domain antibodies targeting the PHF6 linear peptide within the tau intrinsically disordered protein” (The Journal of Biological Chemistry, 2024).
Substitutions are numbered along the chain they refer to. In names and notes the source's numbering stands.

B1: VHH Z70 (VHH)
VHH: EVQLQASGGVFVQSGGSLRLSCAASGATSTFDGMGWFRQAPGKEREFVSAISYEQGSYTYYADSVKGRFTISRDNSKNMVYLQMNSLRAEDTATYYCAPAYEGDLYAFDSYGGQGTQVTVSS
notes: VHH Z70; also in PDB 7QCQ; also called parent VHH; source: E. coli BL21 (DE3), periplasm, purified (IMAC, SEC)
B2: VHH Z70 mutant 5 (T96S) (VHH)
VHH: B1 VHH with T94S
notes: as the chain of m1 (VHH Z70); also called Mut5; source: E. coli BL21 (DE3), periplasm, purified (IMAC, SEC)
B3: VHH Z70 mutant 9 (P101S + G115E) (VHH)
VHH: B1 VHH with P99S, G113E
notes: as the chain of m1 (VHH Z70); also called Mut9; source: E. coli BL21 (DE3), periplasm, purified (IMAC, SEC)
B4: VHH Z70 mutant 12 (S23C + G115E) (VHH)
VHH: B1 VHH with S21C, G113E
notes: as the chain of m1 (VHH Z70); also called Mut12; source: E. coli BL21 (DE3), periplasm, purified (IMAC, SEC)
B5: VHH Z70 mutant 14 (VHH)
VHH: B1 VHH with T30I, E54G, G113E
notes: as the chain of m1 (VHH Z70); The text says only that G115E is combined with additional substitutions in mutant 14; also called Mut14; source: E. coli BL21 (DE3), periplasm, purified (IMAC, SEC)
B6: VHH Z70 mutant 15 (R90G + P101S + G114E) (VHH)
VHH: B1 VHH with R88G, P99S, G112E
notes: as the chain of m1 (VHH Z70); also called Mut15; source: E. coli BL21 (DE3), periplasm, purified (IMAC, SEC)
B7: VHH Z70 mutant 20 (R47K + G115E) (VHH)
VHH: B1 VHH with R45K, G113E
notes: as the chain of m1 (VHH Z70); Generated by the authors, not found in the screen; also called Mut20; source: E. coli BL21 (DE3), periplasm, purified (IMAC, SEC)
B8: VHH Z70 mutant 1 (G115E) (VHH)
VHH: B1 VHH with G113E
notes: as the chain of m1 (VHH Z70); also called Mut1; source: E. coli BL21 (DE3), periplasm, purified (IMAC, SEC)
B9: VHH Z70 mutant 3 (R47K) (VHH)
VHH: B1 VHH with R45K
notes: as the chain of m1 (VHH Z70); also called Mut3; source: E. coli BL21 (DE3), periplasm, purified (IMAC, SEC)

Legend:
biotinylated tau 2N4R = target: T1, biotinylated tau 2N4R (Homo sapiens, UniProt P10636-8, biotin (N-hydroxysuccimide-biotin conjugates, 5 M excess)); experiment: SPR; biotinylated tau 2N4R captured on a streptavidin chip (500 RU); VHHs as analytes, 0.125-2 uM, single-cycle kinetics; HBS-EP+ buffer; 1:1 Langmuir model; Kd calculated as koff/kon; details: both partners purified
T1 construct: tau protein, 2N4R isoform, NCBI NP_005901.2; Expressed from pET15b-tau; also called full-length tau; source: E. coli BL21 (DE3), purified (heating, cation exchange), then biotinylated
T1 sequence (P10636 other isoform, or with tags, fused parts or gaps): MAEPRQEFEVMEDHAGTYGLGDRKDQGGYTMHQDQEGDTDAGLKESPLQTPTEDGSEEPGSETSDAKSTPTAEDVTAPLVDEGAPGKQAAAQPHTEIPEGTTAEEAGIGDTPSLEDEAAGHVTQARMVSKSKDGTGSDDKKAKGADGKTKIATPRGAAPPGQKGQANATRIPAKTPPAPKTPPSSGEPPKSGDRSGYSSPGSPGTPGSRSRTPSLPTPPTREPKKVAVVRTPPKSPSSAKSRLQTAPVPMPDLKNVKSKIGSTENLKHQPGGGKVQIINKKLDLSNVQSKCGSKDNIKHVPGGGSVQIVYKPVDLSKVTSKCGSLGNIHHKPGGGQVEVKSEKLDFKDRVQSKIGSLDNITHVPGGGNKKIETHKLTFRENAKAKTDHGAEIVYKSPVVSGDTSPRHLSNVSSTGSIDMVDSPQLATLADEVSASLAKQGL

[1] = target: tau 2N4R (recombinant; 15N-labelled for NMR) (Homo sapiens, UniProt P10636-8); experiment: cell-based or functional assay
Chain of tau 2N4R (recombinant; 15N-labelled for NMR) (P10636 other isoform, or with tags, fused parts or gaps): as above

| Kd (biotinylated tau 2N4R) | koff (biotinylated tau 2N4R) | kon (biotinylated tau 2N4R) | heparin-induced tau 2N4R aggregation, thioflavin fluorescence intensity ratio between tau with VHH and tau alone; VHH:tau 0.2:1 (46.2%) and 0.5:1 (25%) [1] | Binder |
| --- | --- | --- | --- | --- |
| 147.8 ± 0.9 nM | 0.00267 s⁻¹ | 18100 M⁻¹ s⁻¹ | 46.2% | B1 |
| 80.8 ± 1.5 nM | 0.000882 s⁻¹ | 10900 M⁻¹ s⁻¹ | – | B2 |
| 51.1 ± 0.6 nM | 0.00205 s⁻¹ | 40100 M⁻¹ s⁻¹ | – | B3 |
| 61.2 ± 0.6 nM | 0.00207 s⁻¹ | 33900 M⁻¹ s⁻¹ | – | B4 |
| 74.3 ± 0.8 nM | 0.0014 s⁻¹ | 18800 M⁻¹ s⁻¹ | – | B5 |
| 42.5 ± 0.7 nM | 0.00277 s⁻¹ | 65300 M⁻¹ s⁻¹ | – | B6 |
| 41.8 ± 0.7 nM | 0.00089 s⁻¹ | 21300 M⁻¹ s⁻¹ | – | B7 |
| 22.7 ± 0.5 nM | 0.00242 s⁻¹ | 107000 M⁻¹ s⁻¹ | – | B8 |
| 80.5 ± 1.5 nM | 0.0021 s⁻¹ | 26000 M⁻¹ s⁻¹ | – | B9 |
